Molecular target: human PCSK9 (proprotein convertase subtilisin-kexin type 9), wild type (UniProt Q8NBP7 31-692)
Test: TR-FRET PCSK9-LDLR interaction inhibition

Chain of human PCSK9 (proprotein convertase subtilisin-kexin type 9), wild type (Q8NBP7 31-692): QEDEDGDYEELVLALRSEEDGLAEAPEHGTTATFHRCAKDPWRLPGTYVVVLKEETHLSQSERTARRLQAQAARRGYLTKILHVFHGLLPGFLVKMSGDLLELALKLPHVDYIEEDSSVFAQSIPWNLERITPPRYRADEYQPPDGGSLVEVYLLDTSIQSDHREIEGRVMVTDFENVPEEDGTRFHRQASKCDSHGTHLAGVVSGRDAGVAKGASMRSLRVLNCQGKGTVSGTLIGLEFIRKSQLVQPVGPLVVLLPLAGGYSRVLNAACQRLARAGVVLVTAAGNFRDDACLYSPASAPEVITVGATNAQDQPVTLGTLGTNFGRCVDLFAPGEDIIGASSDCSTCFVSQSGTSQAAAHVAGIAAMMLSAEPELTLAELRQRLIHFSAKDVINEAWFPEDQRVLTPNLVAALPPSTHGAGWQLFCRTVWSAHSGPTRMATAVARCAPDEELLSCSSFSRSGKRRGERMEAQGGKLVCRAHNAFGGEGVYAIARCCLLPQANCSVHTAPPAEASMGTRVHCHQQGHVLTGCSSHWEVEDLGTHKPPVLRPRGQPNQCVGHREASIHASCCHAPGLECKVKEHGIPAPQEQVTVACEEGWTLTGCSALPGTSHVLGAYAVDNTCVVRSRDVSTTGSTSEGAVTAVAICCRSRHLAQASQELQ

IC50 | Binder
4.8 nM | AX211 IgG2 (antibody, V domains shown) VH: QVQLLESGGGLVQPGGSLRLSCKASGYTFSRQGFTWVRQAPGKGLEWIGWIDPGNGGTRYNEKFKGKATISRDNSKNTLYLQMNSLRAEDTAVYYCARYRVGYSLDYWGQGTLVTVSS VL: EIVLTQSPATLSLSPGERATITCRASQYVGSYLNWYQQKPGQAPRLLIYDASNRATGIPARFSGSGSGTDFTLTISSLEPEDFAVYYCQVWDSSPPVVFGGGTKVEIK
4.9 nM | AX213 IgG2 (antibody, V domains shown) VH: EVQLLESGGGLVQPGGSLRLSCKASGYTFSRYGINWVRQAPGKGLEWIGRIDPGNGGTRYNEKFKGKATISRDNSKNTLYLQMNSLRAEDTAVYYCARANDGYSFDYWGQGTLVTVSS VL: EIVLTQSPATLSLSPGERATITCRASQYVGSYLNWYQQKPGQAPRLLIYDASNRATGIPARFSGSGSGTDFTLTISSLEPEDFAVYYCQVWDSSPPVVFGGGTKVEIKR
5.9 nM | AX114 IgG2 (antibody, V domains shown) VH: EVQLLESGGGLVQPGGSLRLSCKASGYTFSSYGMYWVRQAPGKGLEWIGWIDPGSGGTKYNEKFKGKATISRDNSKNTLYLQMNSLRAEDTAVYYCARERYGYYFDYWGQGTLVTVSS VL: EIVLTQSPATLSLSPGERATITCRASQYVGTYLNWYQQKPGQAPRLLIYDASNRATGIPARFSGSGSGTDFTLTISSLEPEDFAVYYCQVWDSSPPVAFGGGTKVEIK
3.9 nM | AX212 IgG2 (antibody, V domains shown) VH: QVQLLESGGGLVQPGGSLRLSCKASGYTFSSYSFSWVRQAPGKGLEWIGYIDPGSGGTKYNQKFQGKATISRDNSKNTLYLQMNSLRAEDTAVYYCARQRVGYSLDYWGQGTLVTVSS VL: EIVLTQSPATLSLSPGERATITCRASQYVGSYLNWYQQKPGQAPRLLIYDASNRATGIPARFSGSGSGTDFTLTISSLEPEDFAVYYCQVWDSSPPVVFGGGTKVEIK
4.9 nM | AX210 IgG2 (antibody, V domains shown) VH: QVQLLESGGGLVQPGGSLRLSCKASGYTFSSYSIYWVRQAPGKGLEWIGWIDPGNGGTRYNQKFQSKATISRDNSKNTLYLQMNSLRAEDTAVYYCARARVGYSLDYWGQGTLVTVSS VL: EIVLTQSPATLSLSPGERATITCRASQYVGSYLNWYQQKPGQAPRLLIYDASNRATGIPARFSGSGSGTDFTLTISSLEPEDFAVYYCQVWDSSPPVVFGGGTKVEIK
